Experimental data from article PMC5794792.

Key:
[1] = molecular target: Bovine α-chymotrypsin (bovine); assay: enzyme inhibition kinetics (progress curves); inhibition of chymotrypsin by several serpin concentrations followed over time at 25 °C; slope of kobs against inhibitor concentration, corrected for non-productive turnover (k'ass); protease assay buffer pH 8.0 with chromogenic substrate
[2] = molecular target: Bovine α-chymotrypsin (bovine); assay: complex dissociation followed by regain of protease activity; 5 µM serpin-chymotrypsin complex diluted 200–2000-fold (0–25 nM) into assay buffer with substrate, 25 °C; apparent rate constant k_(diss,app)

kon [1]: 690000 M⁻¹ s⁻¹ | koff [2]: 7.5e-06 s⁻¹
Substance: α1-antitrypsin (from UniProt P01009 25-418) (natural protein)
